How the values were obtained:
[1] = molecular target: T1, HSV UL42 (processivity factor of HSV DNA polymerase) (herpes simplex virus (HSV), UniProt P10226 1-488); experiment: cell-based or functional assay
T1 sequence: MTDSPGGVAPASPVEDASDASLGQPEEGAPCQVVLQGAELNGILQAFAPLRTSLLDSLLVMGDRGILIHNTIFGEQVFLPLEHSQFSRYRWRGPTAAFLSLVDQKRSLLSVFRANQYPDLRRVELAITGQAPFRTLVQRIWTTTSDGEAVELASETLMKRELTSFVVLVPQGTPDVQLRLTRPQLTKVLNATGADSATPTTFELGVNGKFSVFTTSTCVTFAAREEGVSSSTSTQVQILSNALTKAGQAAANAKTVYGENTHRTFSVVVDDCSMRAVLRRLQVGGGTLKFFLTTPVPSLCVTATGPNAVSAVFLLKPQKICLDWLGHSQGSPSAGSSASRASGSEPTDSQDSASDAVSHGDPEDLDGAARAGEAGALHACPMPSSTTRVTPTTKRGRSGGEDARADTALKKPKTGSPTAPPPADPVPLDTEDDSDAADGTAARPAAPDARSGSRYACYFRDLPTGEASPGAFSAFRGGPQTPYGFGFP

[2] = molecular target: T1, HSV UL42 (processivity factor of HSV …); experiment: cell-based or functional assay; remark: listed apart in the source

| Binder | inhibition of long-chain DNA synthesis at 100 µM [1] | IC50, inhibition of long chain DNA synthesis [2] | IC50 relative to that of peptide E [1] |
| --- | --- | --- | --- |
| ATAEETRRMLHAAFDTLA [peptide E mutant R30A] | < 20 % inhibition at 100 µM | > 100 µM | – |
| AAAEETRRMLHRAFDTLA [peptide E mutant T20A] | < 20 % inhibition at 100 µM | > 100 µM | – |
| ATAAETRRMLHRAFDTLA [peptide E mutant E22A] | < 20 % inhibition at 100 µM | > 100 µM | – |
| ATAEETRRMLARAFDTLA [peptide E mutant H29A] | < 20 % inhibition at 100 µM | > 100 µM | – |
| ATAEETRRMLHRAFATLA [peptide E mutant D33A] | – | 50 µM | – |
| ATAEETRAMLHRAFDTLA [peptide E mutant R26A] | – | 14 µM | – |
| ATAEETRRMLHRAFDTAA [peptide E mutant L35A] | 50 % inhibition at 100 µM | 97 µM | – |
| ATAEETRRMLHRAFDTLA [Peptide E (last 18 residues of HSV DNA polymerase, Pol residues 1218-1235)] | – | 11 µM | – |
| DDVAARLRAAGFGAVGAGATAEETRRMLHRAFDTLA [Peptide A (C-terminal 36 amino acid residues of HSV DNA polymerase, Pol residues 1200-1235)] | – | 1.7 µM | – |
| ATAEETRRMLHRAFDALA [peptide E mutant T34A] | – | 10 µM | – |
| ATAEEARRMLHRAFDTLA [peptide E mutant T24A] | – | 77 µM | 3 to 7 fold |
| ATAEETRRMAHRAFDTLA [peptide E mutant L28A] | – | 18 µM | – |
| ATAEETARMLHRAFDTLA [peptide E mutant R25A] | – | 40 µM | 3 to 7 fold |
| ATAEATRRMLHRAFDTLA [peptide E mutant E23A] | – | 21 µM | – |
| ATAEETRRALHRAFDTLA [peptide E mutant M27A] | 40 % inhibition at 100 µM | > 100 µM | – |
| ATAEETRRMLHRAADTLA [peptide E mutant F32A] | < 20 % inhibition at 100 µM | > 100 µM | – |
